Experiment [1] addresses T1, recombinant human CD47-Fc protein (R&D Systems, USA) (human, UniProt Q08722 19-139).
T1 construct: Bought from R&D Systems; also called CD47-Fc fusion protein; recombinant CD47; not shown: Fc part of the bought fusion
The experiment can be described thus: blocking ELISA: CD47-Fc (1 µg/ml) binding to coated His-tagged SIRP-α. (In general: ELISA stands for enzyme-linked immunosorbent assay.)

In experiment [2] the target is T2, recombinant human His-tagged SIRP-α protein (R&D Systems, USA) (human, UniProt P78324 31-370, limits assumed).
T2 construct: Bought from R&D Systems; also called signal-regulatory protein alpha; not shown: His tag
The experiment can be described thus: direct ELISA, SIRP-α coated at 1 µg/ml.

The target of experiment [3] is T1, recombinant human CD47-Fc protein (R&D …). The experiment can be described thus: titration ELISA on coated CD47-Fc.
The target is the same in experiment [4]. The experiment can be described thus: ELISA of Fab supernatant on coated CD47-Fc.

Where a chain is given by its changes, count along the chain named.

T2 sequence (P78324 31-370 limits assumed): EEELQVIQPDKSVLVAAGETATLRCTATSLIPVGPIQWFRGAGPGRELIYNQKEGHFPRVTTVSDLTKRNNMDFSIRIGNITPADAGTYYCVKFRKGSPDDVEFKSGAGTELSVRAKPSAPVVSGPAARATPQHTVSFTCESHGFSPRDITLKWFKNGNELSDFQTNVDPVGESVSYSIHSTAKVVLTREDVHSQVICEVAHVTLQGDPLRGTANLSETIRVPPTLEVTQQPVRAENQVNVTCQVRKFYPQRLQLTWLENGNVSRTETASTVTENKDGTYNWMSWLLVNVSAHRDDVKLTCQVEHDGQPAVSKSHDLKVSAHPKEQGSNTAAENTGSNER
T1 sequence (Q08722 19-139 limits assumed): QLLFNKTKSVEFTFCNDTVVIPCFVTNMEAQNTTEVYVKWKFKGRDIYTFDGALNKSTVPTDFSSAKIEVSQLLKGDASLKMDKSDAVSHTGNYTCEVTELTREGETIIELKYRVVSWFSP

B1: CwP2F8 (IgG4-reformatted anti-CD47 antibody) (antibody, V domains shown)
VH: QVQLVQSGAEVKKPGSSVKVSCKASGGTFSSYAISWVRQAPGQGLEWMGRIIPILGIANYAQKFQGRVTITADKSTSTAYMELSSLRSEDTAVYYCARSLRWLHRVFDYWGQGTTVTVSS
VL: QSVLTQPASVSGSPGQSITISCTGTSSDVGGYNYVSWYQQHPGKAPKLIIFDVINRPSGVSSRFSGSKSGTSATLVITGLQTGDEADYYCGTWDNSLRAYVFGSGTNVTALG
notes: Full-length human IgG4, expressed in HEK293 cells
The term IC50 denotes the midpoint of a concentration-inhibition curve. The term EC50 denotes the concentration giving half of the maximal effect. In the case of B1, in experiment [1], the IC50 was determined as 0.068 nM. Besides, the binding result in experiment [2] is given as “no binding (tested: 0.5 µg/ml)”. The concentration giving a half-maximal response (EC50) in experiment [3] turned out to be 0.326 nM.

B2: CwP2F8 Fab (library clone) (Fab, V domains shown)
VH: B1 VH
VL: B1 VL
notes: Fab in bacterial supernatant
Turning to B2, the OD450 in experiment [4] is greater than 0.5 OD450.

B3: CwP1A1 Fab (library clone) (Fab, V domains shown)
VH: QITLKESGPTLVKPTQTLTLTCTFSGFSLSTRGVGVGWIRQPPGKALEWLALIYWNDDKRYSPSLKSRLTITKDTSKNQVVLTMTNMDPVDTATYYCAHLITFGGRRAFDIWGQGTMVTVSS
VL: not shown
notes: Fab in bacterial supernatant
Regarding B3, the OD450 in experiment [4] is greater than 0.5 OD450.

B4: CwP1C4 Fab (library clone) (Fab, V domains shown)
VH: B3 VH with I2V, F27L, R32S, I71V
VL: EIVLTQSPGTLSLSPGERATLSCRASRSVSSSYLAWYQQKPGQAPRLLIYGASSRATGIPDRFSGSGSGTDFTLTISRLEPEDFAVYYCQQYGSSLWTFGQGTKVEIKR
notes: Fab in bacterial supernatant
Take B4: the OD450 in experiment [4] was greater than 0.5 OD450.

B5: CwP1C4 (IgG4-reformatted anti-CD47 antibody) (antibody, V domains shown)
VH: B3 VH with I2V, F27L, R32S, I71V
VL: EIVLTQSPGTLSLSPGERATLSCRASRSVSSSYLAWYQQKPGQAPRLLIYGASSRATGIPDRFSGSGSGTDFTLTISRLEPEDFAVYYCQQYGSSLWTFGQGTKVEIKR
notes: as for B1
B5: the IC50 in experiment [1] stood at 0.155 nM. Besides, the binding result in experiment [2] is listed as “no binding (tested: 0.5 µg/ml)”. The EC50 in experiment [3] amounted to 0.227 nM.

B6: BrP1F3 (IgG4-reformatted anti-CD47 antibody) (antibody, V domains shown)
VH: QVQLVQSGAEVKKPGASVKVSCKASGYTFTSYYMHWVRQAPGQGLEWMGIINPSGGSTSYAQKFQGRVTMTRDTSTSTVYMELSSLRSEDTAVYYCARGGTLGMDVWGQGTTVTVSS
VL: SSELTQDPAVSVALGQTVRITCQGDSLRSYYASWYQQKPGQAPVLVIYGKNNRPSGIPDRFSGSSSGNTASLTITGAQAEDEADYYCNSRDSSGNHYVFGTGTKVTVLG
notes: as for B1
On to B6, for which the binding result in experiment [2] is on record as “no binding (tested: 0.5 µg/ml)”. Further, the EC50 in experiment [3] worked out at 10.1 nM.

B7: BrP1F3 Fab (library clone) (Fab, V domains shown)
VH: B6 VH
VL: B6 VL
notes: Fab in bacterial supernatant
Consider B7, for which the OD450 in experiment [4] is greater than 0.5 OD450.

B8: BrP1F11 (IgG4-reformatted anti-CD47 antibody) (antibody, V domains shown)
VH: QVQLVQSGAEVKKPGASVKISCKASGYTFTTYHIHWVRQAPGQGLEWMGVINSNAGNTGYAQNFQDRVTMTRDTSTSTVYMELRSLKSDDTAVYYCAKDPGMGWYMHHWGQGTLVTVSS
VL: NFMLTQPQSVSGSPGETVTISCTGSGGPIASNYVQWYQQRPGSVPTTVIYEDTKRPSGVPDRFSGSIDSSSNSASLTISGLKTEDEADYYCQSYESRNYVFGTGTKVSVLS
notes: Full-length human IgG4, expressed in HEK293 cells; also called BrP1F11-G4
For the molecule B8, the binding result in experiment [2] was “no binding (tested: 0.5 µg/ml)”. Moreover, in experiment [3], the EC50 was determined as 1.21 nM.

B9: BrP1F11 Fab (library clone) (Fab, V domains shown)
VH: B8 VH
VL: B8 VL
notes: Fab in bacterial supernatant
As for B9, the OD450 in experiment [4] was greater than 0.5 OD450.

B10: CwP2F12 (IgG4-reformatted anti-CD47 antibody) (antibody, V domains shown)
VH: QVQLVQSGAEVKKPGASVRLSCKASGYTFSSYYMHWVRQAPGQGLVWMGTSIPTAASGSYAQKFQGRVTMTRDTSTTTVYMELSSLRSEDTAVYYCARGGRGGFDYWGQGTPVTVSS
VL: QPGLTQPPSVSKGLRRTATLTCTGNSNNVGNQGAVWLQQHQGHPPKLLSYRNNNRPSGISERFSASRSANTASLTITGLQPEDEADYYCSAWDSSLSGWVFGGGTKLTVLG
notes: as for B1
For the molecule B10, in experiment [1], the IC50 turned out to be 0.063 nM. Further, the binding result in experiment [2] is recorded as “no binding (tested: 0.5 µg/ml)”. For the same molecule, in experiment [3], the EC50 was found to be 0.441 nM.

B11: CwP2F12 Fab (library clone) (Fab, V domains shown)
VH: B10 VH
VL: B10 VL
notes: Fab in bacterial supernatant
As to B11, the OD450 in experiment [4] was greater than 0.5 OD450.

These data come from patent publication US20200010546A1 (TRICAN BIOTECHNOLOGY, published 2020).
